We go through seven molecules from patent publication US20220227809A1.

Ends that are not written are not given here.

Test [1] addresses norovirus GII.3 TCH strain virus-like particle (VLP) (norovirus GII.3 TCH strain). Put plainly: BLI (BLItz), biotinylated peptide on SA chip, VLP in solution.
Test [2] addresses norovirus GII.17 Saitama strain virus-like particle (VLP) (norovirus GII.17 Saitama strain). Described as above.

B1: norovirus-binding peptide of SEQ ID NO: 288 (peptide)
peptide: CKARSARGVS
modifications: also: biotinylated via PEG3 (AEEEA)-Trp spacer, attachment site and resin-derived C-terminal Lys or Cys not given here
As usually defined, the Kd is the equilibrium constant for the complex coming apart. One may read the koff as the rate constant with which the complex falls apart. A word on the kon: it is a measure of how fast the partners come together. As for B1, in test [1], the Kd was 6.86 nM, the off-rate (koff) was 0.0143 s⁻¹ and the kon was 2.09e+06 M⁻¹ s⁻¹. In test [2], the Kd turned out to be 12 nM, the koff came to 0.00747 s⁻¹ and the kon came to 620000 M⁻¹ s⁻¹.

B2: norovirus-binding peptide of SEQ ID NO: 167 (peptide)
peptide: FVWRRRAGLY
modifications: also: biotinylated via PEG3 (AEEEA)-Trp spacer, attachment site and resin-derived C-terminal Lys or Cys not given here
Take B2: in test [1], the Kd turned out to be 1.39 nM, the off-rate constant (koff) stood at 0.00435 s⁻¹ and the kon amounted to 3.14e+06 M⁻¹ s⁻¹. For the same molecule, in test [2], the Kd turned out to be 0.696 nM, the koff is 0.00111 s⁻¹ and the kon was 1.59e+06 M⁻¹ s⁻¹.

B3: norovirus-binding peptide of SEQ ID NO: 302 (peptide)
peptide: VWWGRRISRF
modifications: also: biotinylated via PEG3 (AEEEA)-Trp spacer, attachment site and resin-derived C-terminal Lys or Cys not given here
On to B3, for which, in test [2], the Kd amounted to 28.4 nM, the koff came to 0.0648 s⁻¹ and the kon is 2.28e+06 M⁻¹ s⁻¹.

B4: norovirus-binding peptide of SEQ ID NO: 205 (peptide)
peptide: FVWSRRTGLY
modifications: also: biotinylated via PEG3 (AEEEA)-Trp spacer, attachment site and resin-derived C-terminal Lys or Cys not given here
On to B4, for which, in test [1], the Kd turned out to be 31.6 nM, the koff is 0.0325 s⁻¹ and the kon came out at 1.03e+06 M⁻¹ s⁻¹. In test [2], this molecule showed a Kd of 109 nM, a koff of 0.0184 s⁻¹ and a kon of 169000 M⁻¹ s⁻¹.

B5: norovirus-binding peptide of SEQ ID NO: 283 (peptide)
peptide: RSMSLHVSMT
modifications: also: biotinylated via PEG3 (AEEEA)-Trp spacer, attachment site and resin-derived C-terminal Lys or Cys not given here
In test [1], B5 displayed a Kd of 0.909 nM, a koff of 0.00715 s⁻¹ and a kon of 7.86e+06 M⁻¹ s⁻¹. Further, in test [2], the Kd was 1.39 nM, the koff is 0.00138 s⁻¹ and the on-rate (kon) was 994000 M⁻¹ s⁻¹.

B6: norovirus-binding peptide of SEQ ID NO: 103 (peptide)
peptide: RFLVPVVKVM
modifications: also: biotinylated via PEG3 (AEEEA)-Trp spacer, attachment site and resin-derived C-terminal Lys or Cys not given here
In test [1], B6 gave a Kd of 8.07 nM, a koff of 0.017 s⁻¹ and a kon of 2.1e+06 M⁻¹ s⁻¹. In test [2], this molecule yielded a Kd of 8.13 nM, a koff of 0.0112 s⁻¹ and a kon of 1.38e+06 M⁻¹ s⁻¹.

B7: norovirus-binding peptide of SEQ ID NO: 263 (peptide)
peptide: ANYRWSRSIK
modifications: also: biotinylated via PEG3 (AEEEA)-Trp spacer, attachment site and resin-derived C-terminal Lys or Cys not given here
As for B7, in test [1], the Kd was 57.5 nM, the koff was determined as 0.049 s⁻¹ and the kon is 851000 M⁻¹ s⁻¹.
